The DeepSol protein solubility set

Test: soluble on expression in E. coli; label from the status in PepcDB or PDB records

| Sequence | soluble on expression in E. coli |
| --- | --- |
| MTDQIKTDNARSKAEQLPLAFSHQSASGREDLLVSASLAAAVSLVDEWPNWPSPVVVLAGPPGSGKSHLANIWKNISDARDIHPEAGADAARAAETGPVLFEDADRRGFDDTELFHVINSVRQHGTTLLMTSRQWPAAWPVTLPDLRSRLKAVTVVETGEPDEGLLAQVLVKLFADRQLYMDDKLIGYIVNRMERSLDTAQTIVEQIDHLALSRATRITRPLVAEVLNAMDKAAAGDGSDID | not soluble |
| MSLTNNSETFNVLHASDFHIQLDYKLGAEGNCTLVPCGTSSSYSKDAPGKTYNFTDYYKSFNSDVSGNDISFYPDSHYDENAKFSKGDYYDFPQYFGWSFNKAPATSFGAYLSDAPYLLVNNSIVEMKKLHQEKNFESIIFTGDSFSHNGELANPDELKFSEAAIFNLINHYLNGVQVFPALGNHDTMFRYAEVAPRIYVSNASYYWNEDYVTDLWVNNGWFDKKDADAIKTHYTGYSFTTKRGLKVIGMNSNFYYGDNLWSYGETTTKPDKFGIWKFLIDELVDSESHGQRVWIMAHIPSNNYDVLPIQSHIFAAIVKRFSPYTIANLFFGHTHRTQYSVYYSTNDTSKIEDALTVSWVNPSVTPYTNFNPGFRYYEVENESFNIRNSFSYYFDLNGTEGHHHHHH | soluble |
| MAHHHHHHMVLPLPKLIQSNEGRVLYHVTNHPIRTIKKKIEGFFKYESLDNLNSEISVRQNFDELFVPLTHPARNIKDTFYLSENYVKHFSTLHNNLYTQLENTNGIYKYYLVTKFVHHHNILLKRTHMTAHLPDLLRRNYKNVIYTGSVYRRDEIDRFHFPIFHQTDGFLIRPDNFDVETDLKKNLEQLIRYLFDASDVQMKWEDNTSFPFTDPSYELYIRGESSKEIRTTGDDIGGESRWVEVLGCGKIKKEVIAMAMHAEDIRQIIEDEIARHDRGLLDELQSIETAVNEAAVNEAAVNEGATNEGAVNEGATNEAVARKSNVEWIYPNVPTPKDILDKLCTTTLNNRIEAQMNKFLKTIRYQGWAFGIGLERLAMLLYHIQDIRLFWSNDNRFIDQFEEGVITTFHPFSNFPPVEKDISFYITSQFKEDLFFQICRDVASENIEQVKKIDSYHNPKNNQTSVCYRITYRSHTQNLTHKTVNEMQSKIVQMLVKQCAVTIR | not soluble |
| MAHHHHHHMDEKSEINYDEGADPSYSMHMSESHSAYEEVNKTSSDSEFVDDDYSKVISENNLESDNVKYNPDLYNLGKARQYLCPKVQEYGIPGQVSPYHFPYNEEDYLSNVDTEYDENGFPIRTNIDDNDNNEDNKKLWSWTNDGKLKLLCSQPIIPVSVVQGILRRDKIILIPQVEVTDVVIPKVYNQNIKHDVPTLNIEIMKSNVNIPNVKYVDKEIIIPIITGYTHKFVPKWDIHEVPRPVVKYIGEQKIVEVEVPEIKYIDKFVEREVIVDTVEKRVPKIIEVPKYVDEVKYVWKPIEKIVYVQKLIPKFDVNLECPPPLIVPYPVQRIKQISPVMVKKNNTEIPDYNYYDLNSPEGSLPIPEEYIHHYSRKQKMNKGLLSTCCDKKIVTEEEKNVQFVSVPLSNEHESVCVDEEIKKNINMSQENINTQLNNNMDNFIYDSDIKKNKDKMNSSINGKQQLYINS | not soluble |
| AQFQYPFKEVYYLETSPRAHRVILYTKTDRLEFTASLEEVFKQEPRLLQCHRSFLINPANVVHLDKKEKLLFFPNGGSCLIARYKVREVSEAINKLH | not soluble |
| MSYYHHHHHHLESTSLYKKAGLVQRITIAPQGPEFSRFVMGYWRLMDWNMSARQLVSFIEEHLDLGVTTVDHADIYGGYQCEAAFGEALKLAPHLRERMEIVSKCGIATTAREENVIGHYITDRDHIIKSAEQSLINLATDHLDLLLIHRPDPLMDADEVADAFKHLHQSGKVRHFGVSNFTPAQFALLQSRLPFTLATNQVEISPVHQPLLLDGTLDQLQQLRVRPMAWSCLGGGRLFNDDYFQPLRDELAVVAEELNAGSIEQVVNAWVLRLPSQPLPIIGSGKIERVRAAVEAETLKMTRQQWFRIRKAALGYDVP | soluble |
| MAYLEQLQAGLRYLGRAGESGRKSLDKVVAPVNGAISEIRGAAAELENLPGVSPEMAARLQRAMRGIGQAQGKVNRVVSTYDRASRALLGIDERLDALKVQVNSAAQAVGKVAGDISPTLAGVLPSWLLAPSATPPSEAAASLPHLLVLQPLTANAQPFYFNLNTAAFDALQRNSAYNWSGQVRLGRRPALQSVGMGEESILLKGAVFPLRRQVGNQEKVVGLEQLEALRRLAERREPLILSSGYGEVQMGLWCLVRISENQSALLGNGAPRKQTFDLEFKRYGDDLPNR | not soluble |
| EISLNGYGRFGLQYVEDRGVGLEDTIISSRLRINIVGTTETDQGVTFGAKLRMQWDDGDAFAGTAGNAAQFWTSYNGVTVSVGNVDTAFDSVALTYDSEMGYEASSFGDAQSSFFAYNSKYDASGALDNYNGIAVTYSISGVNLYLSYVDPDQTVDSSLVTEEFGIAADWSNDMISLAAAYTTDAGGIVDNDIAFVGAAYKFNGGGGPKLAKMEKARGGGGDAGTVGLNWYDNGLSTAGDQVTLYGNYAFGATTVRAYVSDIDRAGADTAYGIGADYQFAEGVKVSGSVQSGFANETVADVGVRFDF | soluble |
| MKILITGGSGLVGRQLTKSLQAQNIEVTWLSRTKGVKDGIKSFLWDYKKGYIEEEAFDGVTHIVHLAGAGVFDKRWTKSYKKEIFDSRILTTKLLVEKALKLNGLEAFISGSAIGIYGNSMNSVPLTETALYGNDYLAQVTKEWEAATVPLENSSIRLAIIRTGIVLSEHGGALPAMINPIKAYIGSPLASGEQIISWIHIDDLCRIFSKAITDDAIKGTYNGVAPEPVTNKVLTQTAAAILHKPLVMPNVPSFALNILLGKEKAASVVEGIAVSAEKISATGFTFTYPYIKKALSDLLLEHHHHHH | not soluble |
| MGHHHHHHSHMAASTASQRPLKGILKDNTSTTSSMVASAEHPRGSVHEQLSKKSQKWDEMNILATYRPADKDYGLMKIDEPSTPYHSTMGDDEDACSDTETTEAMATDSLAKNLAAAEGLEPKYQVQEQESSGEEDSDLSPEEREKKRQFEMRRTLHYNEGLNIKLARQLISKDLHDDDKVEEMLETAHGESMNTEESNQGSTASDQQQNKSRSS | not soluble |
| EDNSRYTHFLTQHYDAKPQGRDDRYCESIMRRRGLTSPCKDINTFIHGNKRSIKAICSQKNVACKNGQTNCYISKSSFQVTTCKLHGGSPWPPCQYRATAGFRNVVVACENGLPVHLDQSIFR | soluble |
| GSMSLPPIRLPSPYGSDRLVQLAARLRPALCDTLITVGSQEFPAHSLVLAGVSQQLGRRGQWALGEGISPSTFAQLLNFVYGESVELQPGELRPLQEAARALGVQSLEEACWRARGDRA | soluble |
| MSAESERKTETIPEWKQEEVDAIVEMIESYESVGVVNIAGIPSRQLQDMRRDLHGTAELRVSRNTLLERALDDVDDGLEDLNGYITGQVGLIGTDDNPFSLFQELEASKTPAPIGAGEVAPNDIVIPEGDTGVDPGPFVGELQSVGADARIQEGSIQVLSDSTVLDTGEEVSQELSNVLNELGIEPKEVGLDLRAVFADGVLFEPEELELDIDEYRSDIQAAAGRAFNLSVNADYPTATTAPTMLQSDRGNAKSLALQAAIEDPEVVPDLVSKADAQVRALASQIDDEEALPEELQGVEADVATEEPTDDQDDDTASEDDADADDAAEEADDDDDDDEDAGDALGAMF | soluble |
| YIGLVNSFAQKKKLSVNYEQCEPNSELPQRFICKCKIGQTMYGTGSGVTKQEAKQLAAKEAYQKLLKSPPKTAGT | soluble |
| MGSDKIHHHHHHMNRGMKNYLSQTNYRDAMKAADIMNSNVIYATLPSTRDKVLELFKKYEISAVPVLKNSELVGIVTRKDILRKIEENQLALLMTPNPTTVDADADVKEVVKILTSTPFRRLPVVKDGKLVGIITVRDIIKKIAEMNIEKPVKSYITPYIVCVWEETPLNVVGEIMRLSNSEFVGILNDNDELVGVIDEKIMLTETLIEDFIEQTAYSSSSDTDDSWSWDSVRDYTVKYFEVSVVKLPKEPVKNFMKKPEFVYPQTSVSKCAKRMVRSDLDYIPVLDSENRLIGTVRDKDLIRVLLEV | not soluble |
| MGSDKIHHHHHHMTEITTLSQFLTTAKTQFQVYDLGRRVQHIDMLAFHQIESLSTPYPYPIQGHAQFAIVFWDASQQHFIWFLKLALDEQGLLSPAPRSQFIEMILAALGQDPTQPLSDEQQERLANNPFNFKPSQEKLAVFNALVRKQLGQRASSQYEFAVQYLSGQVAPAQWQHIGMQGIADVCARANEFDHEQQLVSSFDTAAIEVQIALCQCLEHLLISDTLADKILAKLQDAAPEHQAYFLRALASSAKHSQQAFEHLHGQASLDTNALISIAGRNWSVLKQDSSRSLYLEALALQPQAFFNQVFADIVAIPSLRNQLLGELRNPNRSVQLSQAIGGLFKAASK | not soluble |
| MNQLCRAVPSLRSAVRLASSGRLYTKKHEWVLVENGVGTVGITDFATEQLGDVVFIELPDEGTEISKGDSTGAVESVKAASDIYAPISGTVTQKNVKLEEEAGLINKSPFEKGWLYKLKVKSADELEKLLNEEQYAKFKKDEEAAH | not soluble |
| MYFMEILTCIKQVPGTTSVEVDETTGVLKRDGVDSKMNPYDLYALETALRIKEDKKANLKVLSMGPPQAKKVIEESFMMGADEGALISDRRFGGADVLATSYTISQGIKKMGKVDLIICGKQTTDGDTAQVGPEVAEFLDIPHVTNVTKLIEVKDESIVVEIDMPNDLQVCEIEYPCLITVEKDIFQPRLPSFKLKLNTKDREIPVYSLDDFEDKNENNYGLNGSPTQVVRIFPPKPNTDKNIVRGNADELSFALVNKLEELKLV | not soluble |
| MDQKTRIVAAVIKGVKLPPRFRLRLLKEDPVRLELSLTPAYGKDPVTVGLVESLDLVARRDREGRIPRDLQGTWDWTVRHGKVSTGGWNPYLKEALQTMFETGLPAIVFEELTGEEYHPVDGTRHVR | not soluble |
| MAHHHHHHMSEENNIRKGPSFVFHDIKKKRMREIILMCNKKKQKKMLLKSLNIKFIYEEKNKKRVKIHVDNFLPVSINSDMEIIKKYKEILYDDNYCNIYDINKLKIGKMKKILKDFFYDIFLFCKYIFYKFIYKCQNIINLFLEYKQIMLSHCINRVPYFIKVFSFSSLHILLKYSIRSFFKNYSFYKYIFTPNYKICFLCIHKNSYYSEIEKEDTSQICFDDVSTCQEINILGSEEYLRGLVTSSVGFIDNYDDKNRGNNFLEIFQKHMNIFDIKKDDVHFKINKYEQRIDIEKAFSHIKNNILQKYDERRREKKKDNDKLIRRVQNMYDDVENKIMSSLKKILDITNYDEEREKC | soluble |
| AIRVADLLQHITQMKCAEGYGFKEEYESFFEGQSAPWDSAKKDENRMKNRYGNIIAYDHSRVRLQTIEGDTNSDYINGNYIDGYHRPNHYIATQGPMQETIYDFWRMVWHENTASIIMVTNLVEVGRVKCCKYWPDDTEIYKDIKVTLIETELLAEYVIRTFAVEKRGVHEIREIRQFHFTGWPDHGVPYHATGLLGFVRQVKSKSPPSAGPLVVHCSAGAGRTGCFIVIDIMLDMAEREGVVDIYNCVRELRSRRVNMVQTEEQYVFIHDAILEACL | soluble |
| MSQSDLVTIKNLRFSRSQRVIFDDIDLHVPKGKVTAIMGPSGIGKTTLLRLIGGQLLPEQGEIWFDGENIPTLSRRKLYRARKKMSMLFQSGALFTDLNVFDNVAYPLREHTELDEAMIKTLVLLKLEAVGLRGAAYLMPSELSGGMARRAALARAIALDPELIMYDEPFVGQDPITMGVLVELIRNLNRALGVTSVVVSHDVPEVMSIADWVYLLADGKVIAQGSPQALRDNPDPRVQQFLCGDADGPVPFRFPAQPIEQELFSAK | not soluble |
| MGSDKIHHHHHHMKTLVICSGGLDSVSLAHKVAAEHDLIGLISFDYGQRHRKELDFAARAATRLGVPHDLIDMRQIGAHLSGSALTDDVDVPDGHYAEDTMKITVVPNRNAIMLAIAFGIAAAKQADAVATAVHGGDHFIYPDCRPGFTQAFEAMQAQALDGYASVRLYTPFVHEPKSAIVTEGERHNTPFADTWSCYKGGEVHCGRCGTCVERREAFHLAGVADPTPYADPEFWRAAVEGR | not soluble |
